Laboratory results as given in IntAct's records for PubMed 21059944.

B1: Tumor necrosis factor receptor superfamily member 11A (Mus musculus), O35305 (parent)
chain: MAPRARRRRQLPAPLLALCVLLVPLQVTLQVTPPCTQERHYEHLGRCCSRCEPGKYLSSKCTPTSDSVCLPCGPDEYLDTWNEEDKCLLHKVCDAGKALVAVDPGNHTAPRRCACTAGYHWNSDCECCRRNTECAPGFGAQHPLQLNKDTVCTPCLLGFFSDVFSSTDKCKPWTNCTLLGKLEAHQGTTESDVVCSSSMTLRRPPKEAQAYLPSLIVLLLFISVVVVAAIIFGVYYRKGGKALTANLWNWVNDACSSLSGNKESSGDRCAGSHSATSSQQEVCEGILLMTREEKMVPEDGAGVCGPVCAAGGPWAEVRDSRTFTLVSEVETQGDLSRKIPTEDEYTDRPSQPSTGSLLLIQQGSKSIPPFQEPLEVGENDSLSQCFTGTESTVDSEGCDFTEPPSRTDSMPVSPEKHLTKEIEGDSCLPWVVSSNSTDGYTGSGNTPGEDHEPFPGSLKCGPLPQCAYSMGFPSEAAASMAEAGVRPQDRADERGASGSGSSPSDQPPASGNVTGNSNSTFISSGQVMNFKGDIIVVYVSQTSQEGPGSAEPESEPVGRPVQEETLAHRDSFAGTAPRFPDVCATGAGLQEQGAPRQKDGTSRPVQEQGGAQTSLHTQGSGQCAE

Variants of: B1
Conditions: with Tnfsf11, O35235-1
Tnfsf11, O35235-1, sequence (O35235 whole entry): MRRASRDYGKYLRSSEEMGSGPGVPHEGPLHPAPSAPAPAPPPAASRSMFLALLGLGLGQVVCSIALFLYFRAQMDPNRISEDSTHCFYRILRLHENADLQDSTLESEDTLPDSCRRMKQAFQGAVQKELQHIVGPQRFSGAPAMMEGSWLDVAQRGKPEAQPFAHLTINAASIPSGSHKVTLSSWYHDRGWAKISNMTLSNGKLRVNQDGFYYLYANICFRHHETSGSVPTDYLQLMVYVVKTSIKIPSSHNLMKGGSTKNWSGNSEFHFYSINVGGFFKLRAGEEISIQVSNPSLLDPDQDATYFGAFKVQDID

| Variant | effect of a mutation on the interaction |
| --- | --- |
| D85A | decreasing interaction |
| E126A | disrupting interaction |
| K97A | disrupting interaction |
| G54R | disrupting interaction |

Results, then the variant that gave them:

| effect of a mutation on the interaction | Variant |
| --- | --- |
| disrupting interaction | K171G |
| disrupting interaction | C127A |
